These results are taken from publication doi:10.1101/2025.06.12.659276.

This test has as its target mGq fused to GFP10. Description: BRET (mGq-GFP recruitment to Rluc-fused receptor). As to conditions: n = 4, parent: est. 0.30, read off a plot. Background: In BRET a luciferase serves as donor, and the signal depends on an acceptor being close.

For the substance “US28-Rluc (from UniProt P69332) US28-PDCT: S>A at 12 sites and T>V at 2 sites after helix 8, in the printed stretch QRLF[S>A]RDV[S>A]WYH[S>A]M[S>A]F[S>A]RR[S>A][S>A]P[S>A]RRE[T>V][S>A][S>A]D[T>V]L[S>A]DEVCRV[S>A]QIIP; residue numbers not printed”, the response turned out to be 0.31 (parental HEK-293 cells) and 0.26 (β-arrestin 1/2-deficient (Δβarr1/2) HEK-293 cells).
